Assay results from doi:10.1101/2020.10.06.327627 (bioRxiv, 2020).

Molecular target: T1, human TRAP1 (mitochondrial Hsp90) (human, UniProt Q12931 60-704)
T1 sequence (looked up): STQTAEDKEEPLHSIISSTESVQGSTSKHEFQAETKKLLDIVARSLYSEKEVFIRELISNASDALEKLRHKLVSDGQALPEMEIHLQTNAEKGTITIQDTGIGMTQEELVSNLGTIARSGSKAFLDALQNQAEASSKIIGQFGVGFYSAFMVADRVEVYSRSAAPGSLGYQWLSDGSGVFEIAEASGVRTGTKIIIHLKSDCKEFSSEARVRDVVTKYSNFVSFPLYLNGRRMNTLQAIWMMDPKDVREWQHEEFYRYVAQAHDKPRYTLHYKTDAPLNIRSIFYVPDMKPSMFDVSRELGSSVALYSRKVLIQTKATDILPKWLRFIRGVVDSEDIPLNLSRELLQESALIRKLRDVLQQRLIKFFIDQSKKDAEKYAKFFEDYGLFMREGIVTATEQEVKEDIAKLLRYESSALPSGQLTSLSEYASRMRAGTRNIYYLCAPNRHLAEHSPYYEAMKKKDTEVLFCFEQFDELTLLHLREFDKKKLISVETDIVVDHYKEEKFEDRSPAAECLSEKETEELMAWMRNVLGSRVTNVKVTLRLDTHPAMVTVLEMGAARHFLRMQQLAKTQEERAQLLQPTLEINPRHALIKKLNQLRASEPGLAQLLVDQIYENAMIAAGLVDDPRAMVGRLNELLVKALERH
Assay: cell-based or functional assay

B1: SdhB160 (truncated human succinate dehydrogenase B subunit, truncated at K160) (domain or fragment, UniProt P21912 29-160, looked up)
chain: AQTAAATAPRIKKFAIYRWDPDKAGDKPHMQTYEVDLNKCGPMVLDALIKIKNEVDSTLTFRRSCREGICGSCAMNINGGNTLACTRRIDTNLNKVSKIYPLPHMYVIKDLVPDLSNFYAQYKSIEPYLKKK
acceleration of TRAP1 ATPase activity, EC50: 6.6 µM
acceleration of TRAP1 dimer closure, inter-protomer FRET assay, EC50: 3.6 µM
